Measured values reported in the supplement of paper PMC10567573.

B1: PRIM1 (parent)
chain: CCSSADICPKCWTLMTMAIRIIDR

Variants of: B1
Assay: protein stability index of a GFP-peptide fusion (GPS, HEK-293T) (PSI 1-6); higher = more stable
Settings: c terminus: a fixed tail appended
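Note: lentivirally expressed fusions sorted by FACS into six bins by GFP to DsRed ratio, PSI derived from sequencing read proportions per bin multiplied by bin number.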

Protein stability index, by site and new letter:
M15: G 1.69; Y 1.63; E 2.01; F 1.47; C 1.77; I 2.87; A 2.96; H 2.25; P 2.13; K 2.45; Q 1.95; R 2.35; S 1.95; W 1.98; D 2.03; N 2.29; T 2.34; V 2.96; L 1.59
I19: L 2.12; A 1.93; K 2.77; S 2.6; G 2.21; M 2.33; D 2.92; H 2.8; F 1.57; W 1.83; N 2.89; V 2.58; Y 2.05; Q 1.81; E 2.48; P 2.8; T 2.98
M17: Y 2.15; C 1.15; K 2.56; W 2.19; P 2.29; G 1.96; H 2.38; L 1.74; E 2.5; N 2.48; F 1.94; Q 2.54; A 2.03; S 2.95; T 2.09; V 1.6; R 1.7; D 2.33; I 1.94
I21: T 1.68; P 2.28; A 2.2; G 2.2; M 1.89; N 2.46; L 1.49; Q 2.05; V 1.67; F 1.39; W 1.9; Y 1.73; K 2.35; E 1.58; C 1.94; H 2.23; D 2.68; R 2.75
A18: L 2.3; G 2.06; P 2.1; Q 2.71; T 1.56; I 1.79; C 2.45; K 2.17; D 2.39; V 2.18; Y 1.34; F 1.64; W 2.92; R 1.94; M 1.24; E 1.45; H 2.1
L14: Y 1.71; W 2.62; T 2.89; V 1.8
R24: C 2.19; A 1.89; D 2.09
I22: V 2.34; R 2.5; S 1.6; A 2.1; E 2.57; F 1.59; Y 2.09; P 2.71; K 2.94; T 2.97; L 2.3; N 2.52; H 1.9; W 1.72; G 2.44; Q 2.81; M 1.8
R20: V 1.96; A 1.93; Y 1.91; C 1.96; Q 3.56; F 1.46; N 2.18; K 1.19; T 1.67; G 2.23; W 1.65; E 1.83; I 1.33; S 2.01; L 1.77; P 2.25; D 1.5; H 2.05
T16: Q 2.54; R 1.95; E 1.48; D 2.07; A 2.23; G 2.56; Y 2.08; S 1.49; V 1.87; C 1.61; P 2.09; H 2.04; N 2.37; F 2.12; L 2; M 1.52; K 1.61
D23: R 1.68; K 1.41; N 1.47; A 2.29; S 2.96; W 2.15; L 2.25; Y 1.61; Q 2.09; C 2.19; I 1.84; H 1.69; P 2.42; V 2.31; E 1.94; M 1.64; F 1.78; T 1.82
